Test results: patent publication US20030078221

Key:
Complement C1q = Complement C1q (Homo sapiens?) (UniProt P02745+P02746+P02747); assay: filter; settings: MgPBS 37C
[1] = target: Complement C5 (Homo sapiens) (UniProt P01031+P01031); assay: filter; settings: 2'-F pyrimidines

Complement C1q (Homo sapiens?), sequence (P02745 23-245, chain 1 of 3): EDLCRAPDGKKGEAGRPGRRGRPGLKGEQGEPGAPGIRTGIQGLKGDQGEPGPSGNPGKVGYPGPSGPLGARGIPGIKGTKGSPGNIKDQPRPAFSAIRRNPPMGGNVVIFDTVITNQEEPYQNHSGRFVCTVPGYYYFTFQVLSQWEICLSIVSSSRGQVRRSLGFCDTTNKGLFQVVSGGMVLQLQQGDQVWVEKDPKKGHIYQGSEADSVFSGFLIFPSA
Complement C1q (Homo sapiens?), sequence (P02746 28-253, chain 2 of 3): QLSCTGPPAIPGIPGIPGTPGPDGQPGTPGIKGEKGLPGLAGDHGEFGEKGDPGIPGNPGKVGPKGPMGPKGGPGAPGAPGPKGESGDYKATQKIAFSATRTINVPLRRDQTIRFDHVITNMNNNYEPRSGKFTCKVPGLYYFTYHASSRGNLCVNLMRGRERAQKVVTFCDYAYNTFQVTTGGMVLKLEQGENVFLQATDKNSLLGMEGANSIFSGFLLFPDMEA
Complement C1q (Homo sapiens?), sequence (P02747 29-245, chain 3 of 3): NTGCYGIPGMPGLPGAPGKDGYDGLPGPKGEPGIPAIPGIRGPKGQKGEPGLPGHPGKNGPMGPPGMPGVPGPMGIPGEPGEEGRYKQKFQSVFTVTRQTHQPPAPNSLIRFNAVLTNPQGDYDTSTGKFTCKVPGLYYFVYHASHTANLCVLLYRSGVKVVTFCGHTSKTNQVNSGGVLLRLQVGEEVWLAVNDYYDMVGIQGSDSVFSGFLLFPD

GGGAGGACGAUGCGGNNNNNNNNNNNNNNNNNNNNNNNNNNNNNNCAGACGACUCGCCCGA [random 30N7 2'-F RNA pool]
Kd (Complement C1q; 2'-F pyrimidines): 2300 nM | Kd ([1]; random pool, likely should be larger): > 1 nM

GGGAGGACGAUGCGGNNNNNNNNNNNNNNNNNNNNNNNNNNNNNNNNNNNNNNNNNNNNNNNNNNCAGACGACUCGCCCGA [random 50N7 2'-NH2 RNA pool]
Kd (Complement C1q; 2'-NH2 pyrimidines): 2300 nM

GGGAGGACGAUGCGGUGUUCAGCAUUCAGNAUCUUCACGUGUCGUCAGACGACUCGCCCGA [G3]
Kd ([1]; MgPBS 37C): 55 nM
